Patent US20210355194A1 (TWIST BIOSCIENCE, published 2021)
Read-outs that look alike come from different tables or passages of the source.

Experiments:
[1] = target: T1, SARS-CoV-2 S1 protein (SARS-CoV-2, UniProt P0DTC2 16-685); assay: phage ELISA screen on S1, mean
T1 construct: also called SARS-CoV-2 Spike Glycoprotein S1; S1 (subunit 1)

[2] = target: T1, SARS-CoV-2 S1 protein; assay: inhibitor ELISA, competitor ACE2
[3] = target: T1, SARS-CoV-2 S1 protein; assay: phage ELISA screen on S1, mean; remark: listed apart in the source
[4] = target: T1, SARS-CoV-2 S1 protein; assay: ELISA binding titration on coated antigen
[5] = target: T1, SARS-CoV-2 S1 protein; assay: Carterra SPR, direct capture (DC), S1
[6] = target: T1, SARS-CoV-2 S1 protein; assay: Carterra SPR, Fc capture, S1
[7] = target: T1, SARS-CoV-2 S1 protein; assay: inhibitor ELISA, competitor ACE2; remark: listed apart in the source
[8] = target: T1, SARS-CoV-2 S1 protein
[9] = target: T1, SARS-CoV-2 S1 protein; remark: listed apart in the source

B1: 2-16 (antibody, V domains shown)
VH: EVQLLESGGGLVQPGGSLRLSCAASGFTFSSYAMSWVRQAPGKGLEWVSVISGSGGSTYYADSVKGRFTISRDNSKNTLYLQMNSLRAEDTAVYYCAREGYRDYLWYFDLWGQGTLVTVSS
VL: DIQMTQSPSSLSASVGDRVTITCTGTSSDVGSYDLVSWYQQKPGKAPKLLIYEGNKRPSGVPSRFSGSGSGTDFTLTISSLQPEDFATYYCCSYAGSSVVFGQGTKVEIK
notes: also called variant 2-16
With B1 the “ELISA(Avg)” value [1] was 7.1 fold over background, the IC50 [2] was 433 nM and the “ELISA(Avg)” value [3] was 7.1 fold over background.

B2: 2-8 (antibody, V domains shown)
VH: EVQLLESGGGLVQPGGSLRLSCAASGFTFSDFAMAWVRQAPGKGLEWVSAISGSGDITYYADSVKGRFTISRDNSKNTLYLQMNSLRAEDTAVYYCAREADGLHSPWHFDLWGQGTLVTVSS
VL: DIQMTQSPSSLSASVGDRVTITCRASQSIDTYLNWYQQKPGKAPKLLIYAASALASGVPSRFSGSGSGTDFTLTISSLQPEDFATYYCQQSYSAPPYTFGQGTKVEIK
notes: also called variant 2-8
With B2 the EC50 [4] was 0.08 nM, the Kd [5] was 33.4 nM and the “ELISA(Avg)” value [3] was 32.4 fold over background. For the same binder, the Kd [6] was 52.8 nM and the IC50 [7] was 12.2 nM.

B3: 2-9 (antibody, V domains shown)
VH: EVQLLESGGGLVQPGGSLRLSCAASGFTFPRYAMSWVRQAPGKGLEWVSTISGSGSTTYYADSVKGRFTISRDNSKNTLYLQMNSLRAEDTAVYYCARLIDAFDIWGQGTLVTVSS
VL: DIQMTQSPSSLSASVGDRVTITCRASQRIGTYLNWYQQKPGKAPKLLIYAASNLEGGVPSRFSGSGSGTDFTLTISSLQPEDFATYYCQQNYSTTWTFGQGTKVEIK
notes: also called variant 2-9
B3 was tested, and the IC50 [8] was 23.2 nM and the EC50 [9] was 12.6 nM.
